Results taken from patent US20200347133A1 (INHIBRX, published 2020).
Where a chain is given by its changes, count along the chain named. Blank lines part the entries; values can stand above or below the binder they belong to.

Columns and labels:
[1] = target: T1, CD33M, full length human CD33 protein expressed on transfected cells (human, UniProt P20138 18-303); assay: flow cytometry on cells transfected with CD33M; apparent Kd, one-site fit
T1 construct: also called full length CD33
Experimental: (§1) Binding of sdAbs to human CD33 was assessed by flow cytometry. […] MOLM-13 cells were transiently transfected with a plasmid encoding a sequence comprising “CD33M” (SEQ ID NO: 112) or a plasmid encoding a sequence comprising a truncated version, “CD33m” (SEQ ID NO: 113). The sequence encoded by the CD33M plasmid includes the leader sequence, full extracellular domain, transmembrane domain, and cytoplasmic domain. The sequence encoded by the CD33m plasmid includes the leader sequence, the membrane proximal IgC2 domain, and the transmembrane domain. Untransfected HEK 293 cells were used as CD33-negative cells. Each cell type was plated at 30,000 cells/well in FACS buffer (PBS 1% BSA, 0.1% NaN₃ pH 7.4) on a 96-well round-bottom plate. The sdAbs were diluted in FACS buffer in a 3-fold, 11 point serial dilution. The sdAb dilutions were added to the plated cells, and assay plates were incubated for 30 minutes at 4° C. After washing twice in 150 μL of FACS buffer, cells in each well were resuspended in 100 μL of 1:2000 Alexa Fluor 647-conjugated Anti-Human IgG secondary diluted in FACS buffer and incubated at 4° C. for 30 minutes. The cells were washed twice more, then bound antibody was detected by flow cytometry.
(§2) Flow cytometric analysis was performed on an Intellicyte iQue Plus and fluorescence was plotted as median fluorescence intensity. The apparent affinity (Kd, nM) was determined using one site binding non-linear regression in PRISM graph software.

[2] = target: T2, CD33m, truncated human CD33 protein expressed on transfected cells (human, UniProt P20138 140-259); assay: flow cytometry on cells transfected with truncated CD33m; apparent Kd, one-site fit; CD33m isoform, not CD33M
T2 construct: leader and transmembrane domain are not in it; also called truncated CD33
Experimental: (§3) Binding of sdAbs to human CD33 was assessed by flow cytometry. […] MOLM-13 cells were transiently transfected with a plasmid encoding a sequence comprising “CD33M” (SEQ ID NO: 112) or a plasmid encoding a sequence comprising a truncated version, “CD33m” (SEQ ID NO: 113). The sequence encoded by the CD33M plasmid includes the leader sequence, full extracellular domain, transmembrane domain, and cytoplasmic domain. The sequence encoded by the CD33m plasmid includes the leader sequence, the membrane proximal IgC2 domain, and the transmembrane domain. Untransfected HEK 293 cells were used as CD33-negative cells. Each cell type was plated at 30,000 cells/well in FACS buffer (PBS 1% BSA, 0.1% NaN₃ pH 7.4) on a 96-well round-bottom plate. The sdAbs were diluted in FACS buffer in a 3-fold, 11 point serial dilution. The sdAb dilutions were added to the plated cells, and assay plates were incubated for 30 minutes at 4° C. […] The cells were washed twice more, then bound antibody was detected by flow cytometry.
as §2

[3] = target: T2, CD33m, truncated human CD33 protein …; assay: flow cytometry on cells transfected with truncated CD33m; apparent Kd, one-site fit
Experimental: as §1, §2

[4] = target: T2, CD33m, truncated human CD33 protein …; assay: flow cytometry on cells labelled CD33m-HEK-293, anti-human IgG Alexa Fluor 647 secondary, median fluorescence
Experimental: as §3, §2

[5] = target: T1, CD33M, full length human CD33 protein …; assay: flow cytometry on cells labelled CD33M-HEK-293, anti-human IgG Alexa Fluor 647 secondary, median fluorescence
Experimental: Binding of sdAbs to human CD33 was assessed by flow cytometry. […] […] The sequence encoded by the CD33M plasmid includes the leader sequence, full extracellular domain, transmembrane domain, and cytoplasmic domain. The sequence encoded by the CD33m plasmid includes the leader sequence, the membrane proximal IgC2 domain, and the transmembrane domain. Untransfected HEK 293 cells were used as CD33-negative cells. Each cell type was plated at 30,000 cells/well in FACS buffer (PBS 1% BSA, 0.1% NaN₃ pH 7.4) on a 96-well round-bottom plate. The sdAbs were diluted in FACS buffer in a 3-fold, 11 point serial dilution. The sdAb dilutions were added to the plated cells, and assay plates were incubated for 30 minutes at 4° C. After washing twice in 150 μL of FACS buffer, cells in each well were resuspended in 100 μL of 1:2000 Alexa Fluor 647-conjugated Anti-Human IgG secondary diluted in FACS buffer and incubated at 4° C. for 30 minutes. The cells were washed twice more, then bound antibody was detected by flow cytometry.
as §2

[6] = target: T1, CD33M, full length human CD33 protein …; assay: flow cytometry on Molm-13 cells transfected with CD33 (CD33M per Table 3), anti-human IgG Alexa Fluor 647 secondary, median fluorescence
Experimental: as §3, §2

[7] = target: T1, CD33M, full length human CD33 protein …; assay: flow cytometry on Molm-13 cells transfected with CD33 (CD33M per Table 3), fluorescent anti-human IgG secondary, axis Median BL-1H

T2 sequence (P20138 140-259 limits assumed): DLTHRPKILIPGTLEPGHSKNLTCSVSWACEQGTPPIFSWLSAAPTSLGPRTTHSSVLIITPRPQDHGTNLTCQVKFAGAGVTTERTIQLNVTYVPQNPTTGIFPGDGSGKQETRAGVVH
T1 sequence (P20138 18-303): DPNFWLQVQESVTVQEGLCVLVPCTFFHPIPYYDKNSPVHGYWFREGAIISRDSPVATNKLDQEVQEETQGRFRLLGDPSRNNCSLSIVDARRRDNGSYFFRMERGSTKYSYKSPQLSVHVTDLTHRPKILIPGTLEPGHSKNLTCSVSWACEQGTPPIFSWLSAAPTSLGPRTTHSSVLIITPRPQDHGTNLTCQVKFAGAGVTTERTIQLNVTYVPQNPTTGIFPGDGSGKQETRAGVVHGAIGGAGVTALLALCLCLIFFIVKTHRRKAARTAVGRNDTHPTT

B1: A07 sdAb (A07 VHH domain fused to human IgG1 xELL Fc region) (Fc fusion)
chain: QVQLVQSGGGLVQAGGSLTLSCAASRSSGIDVMGWYRQAPGKERELVAEISGVGDTNYAASLADRFTVSRDNAKNTVYLQMKNLKPEDTAVYYCNAHSFLDLVGAWGQGTQVTVDKTHTCPPCPAPGGPSVFLFPPKPKDTLMISRTPEVTCVVVDVSHEDPEVKFNWYVDGVEVHNAKTKPREEQYNSTYRVVSVLTVLHQDWLNGKEYKCKVSNKALPAPIEKTISKAKGQPREPQVYTLPPSRDELTKNQVSLTCLVKGFYPSDIAVEWESNGQPENNYKTTPPVLDSDGSFFLYSKLTVDKSRWQQGNVFSCSVMHEALHNHYTQKSLSLSPGK
notes: VHH-Fc; no linker stated
- Kd [1]: 53.5 nM
- Kd [2]: 19.9 nM

B2: hzA07v4 sdAb (hzA07v4 VHH domain fused to human IgG1 xELL Fc region) (Fc fusion)
chain: B1 chain with Q1E, Q6E, L11E, A14P, T19R, K82S, N83S, K85R, P86A, Q111L
notes: VHH-Fc; no linker stated; also called hzA07v4-IgG1
- Kd [3]: 11.8 nM
- Kd [1]: 56.6 nM
- EC50 (read off the curve) [4]: ~9 nM

B4: hz1C7v1 sdAb (hz1C7v1 VHH domain fused to human IgG1 xELL Fc region) (Fc fusion)
chain: EVQLVESGGGEVQPGGSLRLSCAASGRTFSGYIMGWFRQAPGKERELVARISGNNLSTEYAESVKGRFTISRDNAKNTLYLQMSSLRAEDTAVYYCAAEYDYSSGDFVYWGQGTLVTVDKTHTCPPCPAPGGPSVFLFPPKPKDTLMISRTPEVTCVVVDVSHEDPEVKFNWYVDGVEVHNAKTKPREEQYNSTYRVVSVLTVLHQDWLNGKEYKCKVSNKALPAPIEKTISKAKGQPREPQVYTLPPSRDELTKNQVSLTCLVKGFYPSDIAVEWESNGQPENNYKTTPPVLDSDGSFFLYSKLTVDKSRWQQGNVFSCSVMHEALHNHYTQKSLSLSPGK
notes: VHH-Fc; no linker stated; also called hz1C7v1-IgG1
- EC50 (read off the curve) [6]: ~6 nM
- Kd [1]: 6.25 nM

Continued by falling Kd [1], values first:

- EC50 (read off the curve) [5]: 10 to 100 nM
- Kd [3]: 9.13 nM
- Kd [1]: 14.8 nM
- EC50 (read off the curve) [4]: ~8 nM
B3: hzF02v18 sdAb (hzF02v18 VHH domain fused to human IgG1 xELL Fc region) (Fc fusion)
chain: EVQLVESGGGEVQPGGSLRLSCAASGSISSYNVMGWYRQAPGKQRELVAQINAYGDTNYANAVVGRFTISRDNAKNTVYLQMSSLRAEDTAVYYCNGQRMLENYTYRDQSWGQGTLVTVDKTHTCPPCPAPGGPSVFLFPPKPKDTLMISRTPEVTCVVVDVSHEDPEVKFNWYVDGVEVHNAKTKPREEQYNSTYRVVSVLTVLHQDWLNGKEYKCKVSNKALPAPIEKTISKAKGQPREPQVYTLPPSRDELTKNQVSLTCLVKGFYPSDIAVEWESNGQPENNYKTTPPVLDSDGSFFLYSKLTVDKSRWQQGNVFSCSVMHEALHNHYTQKSLSLSPGK
notes: VHH-Fc; no linker stated; also called hzF02v18-IgG1

- EC50 (read off the curve) [7]: ~5 nM
- Kd [1]: 5.45 nM
B5: hz1C7v11 sdAb (hz1C7v11 VHH domain fused to human IgG1 xELL Fc region) (Fc fusion)
chain: B4 chain with S57A
notes: VHH-Fc; no linker stated; also called hz1C7v11-IgG1
